PMC5737361 (Nucleic Acids Research, 2017)

Molecular target: T1, Sulfolobus solfataricus PolB1, unlabelled (Sulfolobus solfataricus, UniProt P26811 1-882)
T1 sequence (looked up): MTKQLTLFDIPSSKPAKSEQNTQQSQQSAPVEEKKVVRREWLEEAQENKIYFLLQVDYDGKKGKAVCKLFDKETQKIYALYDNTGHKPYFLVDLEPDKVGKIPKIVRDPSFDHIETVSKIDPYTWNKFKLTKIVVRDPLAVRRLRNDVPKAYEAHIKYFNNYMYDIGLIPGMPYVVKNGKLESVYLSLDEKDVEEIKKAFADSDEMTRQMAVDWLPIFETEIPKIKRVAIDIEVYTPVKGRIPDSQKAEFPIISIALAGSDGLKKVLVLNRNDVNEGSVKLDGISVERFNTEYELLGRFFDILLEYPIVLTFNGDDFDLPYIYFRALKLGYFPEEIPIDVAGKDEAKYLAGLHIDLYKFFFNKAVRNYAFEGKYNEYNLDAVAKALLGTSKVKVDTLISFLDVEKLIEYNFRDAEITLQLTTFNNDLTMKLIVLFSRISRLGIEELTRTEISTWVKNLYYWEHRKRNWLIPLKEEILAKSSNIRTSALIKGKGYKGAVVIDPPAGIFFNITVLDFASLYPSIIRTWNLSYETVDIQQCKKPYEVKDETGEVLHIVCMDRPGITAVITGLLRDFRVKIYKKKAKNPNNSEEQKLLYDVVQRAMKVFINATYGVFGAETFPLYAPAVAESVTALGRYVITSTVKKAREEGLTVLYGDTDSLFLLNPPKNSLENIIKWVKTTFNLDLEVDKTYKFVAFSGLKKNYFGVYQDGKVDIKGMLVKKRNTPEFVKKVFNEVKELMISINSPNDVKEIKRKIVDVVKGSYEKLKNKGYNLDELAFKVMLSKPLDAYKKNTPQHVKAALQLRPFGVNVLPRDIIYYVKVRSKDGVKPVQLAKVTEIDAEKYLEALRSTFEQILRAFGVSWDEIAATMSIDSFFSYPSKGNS
Assay: SEC

B1: Sulfolobus solfataricus Dpo4 (PolY), wild type, unlabelled (enzyme)
chain: MIVLFVDFDYFYAQVEEVLNPSLKGKPVVVCVFSGRFEDSGAVATANYEARKFGVKAGIPIVEAKKILPNAVYLPMRKEVYQQVSSRIMNLLREYSEKIEIASIDEAYLDISDKVRDYREAYNLGLEIKNKILEKEKITVTVGISKNKVFAKIAADMAKPNGIKVIDDEEVKRLIRELDIADVPGIGNITAEKLKKLGINKLVDTLSIEFDKLKGMIGEAKAKYLISLARDEYNEPIRTRVRKSIGRIVTMKRNSRNLEEIKPYLFRAIEESYYKLDKRIPKAIHVVAVTEDLDIVSRGRTFPHGISKETAYSESVKLLQKILEEDERKIRRIGVRFSKFIEAIGLDKFFDT
- binding result: binds
